Abundance fitness data for 43 variants are collected here from the Human Domainome abundance scans (Beltran et al. 2025).

The chains are these.
B1: Double-stranded RNA-specific adenosine deaminase, residues 296 to 358; numbered along this chain, P55265 (parent)
chain: MAEIKEKICDYLFNVSDSSALNLAKNIGLTKARDINAVLIDMERQGDVYRQGTTPPIWHLTDK

± gives the uncertainty stated by the source.

Variants of B1 are the subject of this data set. As to the kind of experiment: abundance fitness (aPCA) (normalised: wild type 0, dead -1); higher = more abundant; growth selection in yeast, the domain comes from the species named. To be noted: Homo sapiens.
Consider MAEIKEKICDYLFNVSDNSALNLAKNIGLTKARDINAVLIDMERQGDVYRQGTTPPIWHLTDK [S18N], for which the abundance fitness is -0.607 ± 0.096. As for MAEIKEKICDYLFNVSDYSALNLAKNIGLTKARDINAVLIDMERQGDVYRQGTTPPIWHLTDK [S18Y], the abundance fitness is -0.698 ± 0.11. With MAEIKEKICDYLFNVSDQSALNLAKNIGLTKARDINAVLIDMERQGDVYRQGTTPPIWHLTDK [S18Q], the abundance fitness is -0.481 ± 0.076. Regarding MAEIKEKICDYLFNVSDWSALNLAKNIGLTKARDINAVLIDMERQGDVYRQGTTPPIWHLTDK [S18W], the abundance fitness is -0.535 ± 0.079. As to MAEIKEKICDYLFNVSDMSALNLAKNIGLTKARDINAVLIDMERQGDVYRQGTTPPIWHLTDK [S18M], the abundance fitness is -0.684 ± 0.1. Turning to MAEIKEKICDYLFNVSDHSALNLAKNIGLTKARDINAVLIDMERQGDVYRQGTTPPIWHLTDK [S18H], the abundance fitness is -0.366 ± 0.081. With MAEIKEKICDYLFNVSDTSALNLAKNIGLTKARDINAVLIDMERQGDVYRQGTTPPIWHLTDK [S18T] the figure was -0.388 ± 0.065. For MAEIKEKICDYLFNVSDPSALNLAKNIGLTKARDINAVLIDMERQGDVYRQGTTPPIWHLTDK [S18P], the abundance fitness was -0.83 ± 0.14. Regarding MAEIKEKICDYLFNVSDISALNLAKNIGLTKARDINAVLIDMERQGDVYRQGTTPPIWHLTDK [S18I], the abundance fitness was -1.01 ± 0.21. For the variant MAEIKEKICDYLFNVSDVSALNLAKNIGLTKARDINAVLIDMERQGDVYRQGTTPPIWHLTDK [S18V], the abundance fitness is -0.699 ± 0.062. With MAEIKEKICDYLFNVSDKSALNLAKNIGLTKARDINAVLIDMERQGDVYRQGTTPPIWHLTDK [S18K], the abundance fitness is -0.549 ± 0.063. With MAEIKEKICDYLFNVSDFSALNLAKNIGLTKARDINAVLIDMERQGDVYRQGTTPPIWHLTDK [S18F] the figure was -0.816 ± 0.15; with MAEIKEKICDYLFNVSDESALNLAKNIGLTKARDINAVLIDMERQGDVYRQGTTPPIWHLTDK [S18E], -0.49 ± 0.049. The result for MAEIKEKICDYLFNVSDDSALNLAKNIGLTKARDINAVLIDMERQGDVYRQGTTPPIWHLTDK [S18D] reads -0.461 ± 0.085; that for MAEIKEKICDYLFNVSDSYALNLAKNIGLTKARDINAVLIDMERQGDVYRQGTTPPIWHLTDK [S19Y], -0.5 ± 0.38. MAEIKEKICDYLFNVSDSTALNLAKNIGLTKARDINAVLIDMERQGDVYRQGTTPPIWHLTDK [S19T]: the abundance fitness was -0.236 ± 0.26. For MAEIKEKICDYLFNVSDSSADNLAKNIGLTKARDINAVLIDMERQGDVYRQGTTPPIWHLTDK [L21D], the abundance fitness is 0.339 ± 0.083.

As to MAEIKEKICDYLFNVSDSSACNLAKNIGLTKARDINAVLIDMERQGDVYRQGTTPPIWHLTDK [L21C], the abundance fitness was -0.136 ± 0.056. Regarding MAEIKEKICDYLFNVSDSSARNLAKNIGLTKARDINAVLIDMERQGDVYRQGTTPPIWHLTDK [L21R], the abundance fitness is -0.02 ± 0.046. With MAEIKEKICDYLFNVSDSSANNLAKNIGLTKARDINAVLIDMERQGDVYRQGTTPPIWHLTDK [L21N], the abundance fitness is 0.067 ± 0.079.

As to MAEIKEKICDYLFNVSDSSAENLAKNIGLTKARDINAVLIDMERQGDVYRQGTTPPIWHLTDK [L21E], the abundance fitness was found to be 0.476 ± 0.063. With MAEIKEKICDYLFNVSDSSAMNLAKNIGLTKARDINAVLIDMERQGDVYRQGTTPPIWHLTDK [L21M], the abundance fitness worked out at 0.029 ± 0.11. Regarding MAEIKEKICDYLFNVSDSSAANLAKNIGLTKARDINAVLIDMERQGDVYRQGTTPPIWHLTDK [L21A], the abundance fitness turned out to be 0.263 ± 0.068.

As to MAEIKEKICDYLFNVSDSSAVNLAKNIGLTKARDINAVLIDMERQGDVYRQGTTPPIWHLTDK [L21V], the abundance fitness was -0.015 ± 0.052. On to MAEIKEKICDYLFNVSDSSAWNLAKNIGLTKARDINAVLIDMERQGDVYRQGTTPPIWHLTDK [L21W], for which the abundance fitness is -0.071 ± 0.067.

For MAEIKEKICDYLFNVSDSSAGNLAKNIGLTKARDINAVLIDMERQGDVYRQGTTPPIWHLTDK [L21G], the abundance fitness amounted to 0.009 ± 0.052. As for MAEIKEKICDYLFNVSDSSATNLAKNIGLTKARDINAVLIDMERQGDVYRQGTTPPIWHLTDK [L21T], the abundance fitness worked out at 0.125 ± 0.063.

In the case of MAEIKEKICDYLFNVSDSSAHNLAKNIGLTKARDINAVLIDMERQGDVYRQGTTPPIWHLTDK [L21H], the abundance fitness was -0.046 ± 0.092. The result for MAEIKEKICDYLFNVSDSSAYNLAKNIGLTKARDINAVLIDMERQGDVYRQGTTPPIWHLTDK [L21Y] reads -0.111 ± 0.069. Turning to MAEIKEKICDYLFNVSDSSASNLAKNIGLTKARDINAVLIDMERQGDVYRQGTTPPIWHLTDK [L21S], the abundance fitness turned out to be 0.05 ± 0.049. As for MAEIKEKICDYLFNVSDSSAQNLAKNIGLTKARDINAVLIDMERQGDVYRQGTTPPIWHLTDK [L21Q], the abundance fitness is 0.158 ± 0.095. Turning to MAEIKEKICDYLFNVSDSSAINLAKNIGLTKARDINAVLIDMERQGDVYRQGTTPPIWHLTDK [L21I], the abundance fitness was -0.044 ± 0.12. For MAEIKEKICDYLFNVIDSSALNLAKNIGLTKARDINAVLIDMERQGDVYRQGTTPPIWHLTDK [S16I], the abundance fitness was -0.543 ± 0.11.

Take MAEIKEKICDYLFNVYDSSALNLAKNIGLTKARDINAVLIDMERQGDVYRQGTTPPIWHLTDK [S16Y]: the abundance fitness is -0.684 ± 0.12.

For the variant MAEIKEKICDYLFNVNDSSALNLAKNIGLTKARDINAVLIDMERQGDVYRQGTTPPIWHLTDK [S16N], the abundance fitness is -0.006 ± 0.087. For MAEIKEKICDYLFNVLDSSALNLAKNIGLTKARDINAVLIDMERQGDVYRQGTTPPIWHLTDK [S16L], the abundance fitness is -0.525 ± 0.054. With MAEIKEKICDYLFNVVDSSALNLAKNIGLTKARDINAVLIDMERQGDVYRQGTTPPIWHLTDK [S16V] the figure was -0.249 ± 0.061. As for MAEIKEKICDYLFNVTDSSALNLAKNIGLTKARDINAVLIDMERQGDVYRQGTTPPIWHLTDK [S16T], the abundance fitness is -0.407 ± 0.064. With MAEIKEKICDYLFNVQDSSALNLAKNIGLTKARDINAVLIDMERQGDVYRQGTTPPIWHLTDK [S16Q] the figure was -0.124 ± 0.063; with MAEIKEKICDYLFNVWDSSALNLAKNIGLTKARDINAVLIDMERQGDVYRQGTTPPIWHLTDK [S16W], -0.514 ± 0.086; with MAEIKEKICDYLFNVMDSSALNLAKNIGLTKARDINAVLIDMERQGDVYRQGTTPPIWHLTDK [S16M], -0.379 ± 0.077.

For MAEIKEKICDYLFNVPDSSALNLAKNIGLTKARDINAVLIDMERQGDVYRQGTTPPIWHLTDK [S16P], the abundance fitness is -0.1 ± 0.062. Take MAEIKEKICDYLFNVKDSSALNLAKNIGLTKARDINAVLIDMERQGDVYRQGTTPPIWHLTDK [S16K]: the abundance fitness was 0.206 ± 0.079.
